The target of test [1] is T1, type 1 cholecystokinin receptor (CCK1R) (UniProt P32238).
T1 sequence: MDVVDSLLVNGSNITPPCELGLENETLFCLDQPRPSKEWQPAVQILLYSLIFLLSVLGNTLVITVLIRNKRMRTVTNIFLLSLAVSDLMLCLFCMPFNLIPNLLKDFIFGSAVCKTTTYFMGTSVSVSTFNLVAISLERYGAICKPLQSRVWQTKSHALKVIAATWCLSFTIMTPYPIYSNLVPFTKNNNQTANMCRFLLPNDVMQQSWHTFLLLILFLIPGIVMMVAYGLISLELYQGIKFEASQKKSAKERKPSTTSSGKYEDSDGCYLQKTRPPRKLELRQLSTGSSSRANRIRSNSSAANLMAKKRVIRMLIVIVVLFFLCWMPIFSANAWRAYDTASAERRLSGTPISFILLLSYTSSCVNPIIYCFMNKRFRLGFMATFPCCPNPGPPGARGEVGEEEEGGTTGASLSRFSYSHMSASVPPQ

A further test deals with T2, CCK1R (Homo sapiens, UniProt P32238).
T2 sequence (P32238 1-428): T1 sequence
Description: Intracellular calcium assay (Fura-8-AM) in CHO-CCK1R cells. To be noted: CHO-CCK1R cells, agonist alone; mean ± SEM. The test is classed as cell-based. The arrangement: expressed in transfected cells. As for the experimental part: Biological activity was quantified in the CHO cell lines described above using intracellular calcium assays that were performed, as previously described, using Fura-8-AM (AAT Bioquest, Pleasonton, CA, USA). Full agonist dose–response curves were performed along with determination of maximal responses to 0.1 mM ATP, targeting an endogenous receptor present on the parental cells. Concentration–response curves of peak intracellular calcium responses were analyzed and plotted as percentages of maximal responses using non-linear regression analysis in Prism 9.1 (GraphPad).

Non-standard residues stand in square brackets, D forms with d. Residues, ends and D or L forms follow the SMILES beside them. *: point of attachment. sY = N[C@@H](Cc1ccc(OS(=O)(=O)O)cc1)C(=O)O; OCH2CH2Ph = c1ccc(CCO*)cc1; Nle = CCCC[C@H](N)C(=O)O

Consider “D-Tyr-Gly-[(Nle^28,31)CCK-26-32]-phenethyl ester (peptide)”, for which, in test [1], the pEC50 of intracellular calcium response (Fura-8-AM), CHO-CCK1R cells came out at 7.3; the pEC50 of intracellular calcium response (Fura-8-AM), CHO-CCK1R cells, with 10 µM hit 1 was 8; the pEC50 of intracellular calcium response (Fura-8-AM), CHO-CCK1R cells, with 10 µM hit 6 was 8.1.

For the molecule `CCCC[C@H](NC(=O)[C@H](Cc1ccc(OS(=O)(=O)O)cc1)NC(=O)[C@H](CC(=O)O)NC(=O)CNC(=O)[C@H](N)Cc1ccc(O)cc1)C(=O)NCC(=O)N[C@@H](Cc1c[nH]c2ccccc12)C(=O)N[C@@H](CCCC)C(=O)N[C@@H](CC(=O)O)C(=O)OCCc1ccccc1` [CCK-OPE, D-Tyr-Gly-[(Nle^28,31)CCK-26-32]-phenethyl ester, reference compound] (H-[dY]GD[sY][Nle]GW[Nle]D-OCH2CH2Ph; N-terminus assumed), at CCK1R, the “pEC50 agonist-induced intracellular calcium response” value turned out to be 7.3 ± 0.2.

With KAPSGRMSIVKNLQNLDPSHRISDRDYMGWMDF [CCK-33], in test [1], the pEC50 of intracellular calcium response (Fura-8-AM), CHO-CCK1R cells turned out to be 9.6; the pEC50 of intracellular calcium response (Fura-8-AM), CHO-CCK1R cells, with 10 µM hit 1 amounted to 10.7; the pEC50 of intracellular calcium response (Fura-8-AM), CHO-CCK1R cells, with 10 µM hit 6 stood at 10.7.

These data come from publication PMC9964746, “Mechanism of Action and Structure–Activity Relationships of Tetracyclic Small Molecules Acting as Universal Positive Allosteric Modulators of the Cholecystokinin Receptor” (Membranes, 2023).
